Laboratory results: patent US6706266, “Oncostatin M antagonists” (SmithKline Beecham Corporation)
Values joined by “and” are separate entries in the source; they are usually repeats but may differ in a detail not shown here. Equal values may be shown once.

T1: gp130 on HepG2 B6 cells (UniProt P40189 23-918, limits assumed)
T1 sequence (looked up): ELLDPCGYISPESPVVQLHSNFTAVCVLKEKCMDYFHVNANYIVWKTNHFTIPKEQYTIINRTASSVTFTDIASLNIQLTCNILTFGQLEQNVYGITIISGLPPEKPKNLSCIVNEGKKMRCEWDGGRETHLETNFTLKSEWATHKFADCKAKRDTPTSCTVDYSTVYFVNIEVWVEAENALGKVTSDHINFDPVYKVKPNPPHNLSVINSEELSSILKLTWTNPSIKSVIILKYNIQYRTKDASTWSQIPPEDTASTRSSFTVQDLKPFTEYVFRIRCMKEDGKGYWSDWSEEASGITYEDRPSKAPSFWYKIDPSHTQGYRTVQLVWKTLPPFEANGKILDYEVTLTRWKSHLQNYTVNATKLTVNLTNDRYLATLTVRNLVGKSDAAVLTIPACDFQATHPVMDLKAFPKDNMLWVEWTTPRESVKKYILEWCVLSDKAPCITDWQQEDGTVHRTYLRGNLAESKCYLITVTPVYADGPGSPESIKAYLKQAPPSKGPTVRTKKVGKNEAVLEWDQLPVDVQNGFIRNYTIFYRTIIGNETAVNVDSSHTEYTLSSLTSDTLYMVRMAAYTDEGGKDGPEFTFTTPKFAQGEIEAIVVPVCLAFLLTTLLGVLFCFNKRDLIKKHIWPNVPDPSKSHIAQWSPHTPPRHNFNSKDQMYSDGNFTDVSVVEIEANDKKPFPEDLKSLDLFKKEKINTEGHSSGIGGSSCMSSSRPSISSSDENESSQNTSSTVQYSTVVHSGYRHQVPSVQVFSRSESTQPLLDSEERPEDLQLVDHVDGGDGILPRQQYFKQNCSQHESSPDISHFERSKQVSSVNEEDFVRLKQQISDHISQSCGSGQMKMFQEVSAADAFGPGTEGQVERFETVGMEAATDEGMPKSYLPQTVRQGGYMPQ

T2: gp130-Fc fusion protein (human, UniProt P40189 23-619)
T2 construct: extracellular domain; not shown: Fc fragment of human IgG1
T2 sequence (looked up): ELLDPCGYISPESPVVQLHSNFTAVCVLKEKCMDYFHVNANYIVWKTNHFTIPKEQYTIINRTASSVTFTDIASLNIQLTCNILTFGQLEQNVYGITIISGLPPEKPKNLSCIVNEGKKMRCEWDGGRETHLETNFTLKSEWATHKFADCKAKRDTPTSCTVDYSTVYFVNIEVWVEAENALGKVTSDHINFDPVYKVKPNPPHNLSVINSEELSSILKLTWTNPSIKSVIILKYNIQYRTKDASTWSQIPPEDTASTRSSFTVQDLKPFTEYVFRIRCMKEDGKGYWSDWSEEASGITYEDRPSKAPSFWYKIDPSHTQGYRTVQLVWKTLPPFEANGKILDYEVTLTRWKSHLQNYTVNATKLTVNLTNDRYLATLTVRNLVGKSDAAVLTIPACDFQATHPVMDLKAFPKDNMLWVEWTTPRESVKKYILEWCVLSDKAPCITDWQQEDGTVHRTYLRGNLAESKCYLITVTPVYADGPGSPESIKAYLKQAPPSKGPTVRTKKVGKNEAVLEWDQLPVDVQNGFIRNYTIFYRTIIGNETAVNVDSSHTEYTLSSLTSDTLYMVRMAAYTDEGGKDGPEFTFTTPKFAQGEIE


Tests used:
gp130 on HepG2 B6 cells = target: T1, gp130 on HepG2 B6 cells; experiment: cell-based or functional assay
gp130-Fc fusion protein [1] = target: T2, gp130-Fc fusion protein; experiment: competition ELISA: OSM-GST titrated against plate-bound wt OSM for gp130-Fc; mean
Protocol: (§1) Plates were washed (×6 in PBS 0.05% tween 20, using Skatron Plate washer), tapped dry and blocked to reduce non-specific binding (200 µl/well, 1% BSA/PBS). Following 1 h incubation (room temperature on a shaking platform) the plates were tapped dry and wild type (wt) or mutant OSM-GST from Example 9b added (50 µl/well, 20–0.002 µg/ml, titrated in 1%BSA/PBS). As a positive control polyclonal anti-human OSM antibody (R&D Systems) was also tested (20–0.02 µg/ml). […] Following a 5 h incubation (room temperature on a shaking platform) the plates were washed (×6) and developed using ELISA Amplification System (Life Technologies) as manufacturer's instructions and the OD measured at 490 nm.

gp130-Fc fusion protein [2] = target: T2, gp130-Fc fusion protein; experiment: competition ELISA: OSM-GST titrated against plate-bound wt OSM for gp130-Fc; single experiment
Protocol: as §1

| Binder | sPAP HepG2 B6 assay: Expt 1 % (EC50 as % of wild type EC50) (gp130 on HepG2 B6 cells) [%] | sPAP HepG2 B6 assay: Expt 1 EC50 (gp130 on HepG2 B6 cells) [µg/mL] | sPAP HepG2 B6 assay: Expt 2 % (EC50 as % of wild type EC50) (gp130 on HepG2 B6 cells) [%] | sPAP HepG2 B6 assay: Expt 2 EC50 (gp130 on HepG2 B6 cells) [µg/mL] | sPAP HepG2 B6 assay: Mean % of wild type EC50 (gp130 on HepG2 B6 cells) [%] | IC50 (gp130-Fc fusion protein [1]) [µg/mL] | IC50 (gp130-Fc fusion protein [2]) |
| --- | --- | --- | --- | --- | --- | --- | --- |
| OSM-GST mutant D22A (ligand, not shown: a dimerising Fc or GST; large carriers; small tags and cut ends, Alanine mutant of m4; also called (15)D22; 15 D22) AAIGSCSKEYRVLLGQLQKQTALMQDTSRLLDPYIRIQGLDVPKLREHCRERPGAFPSEETLRGLGRRGFLQTLNATLGCVLHRLADLEQRLPKAQDLERSGLNIEDLEKLQMARPNILGLRNNIYCMAQLLDNSDTAEPTKAGRGASQPPTPTPASDAFQRKLEGCRFLHGYHRFMHSVGRVFSKWGESPNRSRR | 152 | 0.0367 | 50 | 0.016 | 101 | 0.071 | 0.04 µg/mL and 0.08 µg/mL and 0.092 µg/mL |
| OSM-GST mutant D26A (ligand, not shown: a dimerising Fc or GST; large carriers; small tags and cut ends, Alanine mutant of m4; also called (27)D26A; 27 D26A) AAIGSCSKEYRVLLGQLQKQTDLMQATSRLLDPYIRIQGLDVPKLREHCRERPGAFPSEETLRGLGRRGFLQTLNATLGCVLHRLADLEQRLPKAQDLERSGLNIEDLEKLQMARPNILGLRNNIYCMAQLLDNSDTAEPTKAGRGASQPPTPTPASDAFQRKLEGCRFLHGYHRFMHSVGRVFSKWGESPNRSRR | 81 | 0.0195 | 79 | 0.0255 | 80 | 0.31 | 0.17 µg/mL and 0.28 µg/mL and 0.481 µg/mL |
| OSM-GST mutant E9A (ligand, not shown: a dimerising Fc or GST; large carriers; small tags and cut ends, Alanine mutant of m4; also called (3)E9A; 3 E9A) AAIGSCSKAYRVLLGQLQKQTDLMQDTSRLLDPYIRIQGLDVPKLREHCRERPGAFPSEETLRGLGRRGFLQTLNATLGCVLHRLADLEQRLPKAQDLERSGLNIEDLEKLQMARPNILGLRNNIYCMAQLLDNSDTAEPTKAGRGASQPPTPTPASDAFQRKLEGCRFLHGYHRFMHSVGRVFSKWGESPNRSRR | 98 | 0.0236 | 27 | 0.0089 | 62.5 | 0.156 | 0.208 µg/mL and 0.163 µg/mL and 0.097 µg/mL |
| OSM-GST mutant G15A (ligand, Alanine mutant of m4; also called (8)G15A; 8 G15A; not shown: Its linker is left out) AAIGSCSKEYRVLLAQLQKQTDLMQDTSRLLDPYIRIQGLDVPKLREHCRERPGAFPSEETLRGLGRRGFLQTLNATLGCVLHRLADLEQRLPKAQDLERSGLNIEDLEKLQMARPNILGLRNNIYCMAQLLDNSDTAEPTKAGRGASQPPTPTPASDAFQRKLEGCRFLHGYHRFMHSVGRVFSKWGESPNRSRR | 87 | 0.021 | 55 | 0.0178 | 71 | 0.155 | 0.09 µg/mL and 0.203 µg/mL and 0.171 µg/mL |
| OSM-GST mutant L13A (ligand, Alanine mutant of m4; also called (6)L13A; 6 L13A; not shown: Its linker is left out) AAIGSCSKEYRVALGQLQKQTDLMQDTSRLLDPYIRIQGLDVPKLREHCRERPGAFPSEETLRGLGRRGFLQTLNATLGCVLHRLADLEQRLPKAQDLERSGLNIEDLEKLQMARPNILGLRNNIYCMAQLLDNSDTAEPTKAGRGASQPPTPTPASDAFQRKLEGCRFLHGYHRFMHSVGRVFSKWGESPNRSRR | 269 | 0.0657 | 171 | 0.0549 | 220 | 2.53 | 2.96 µg/mL and 1.99 µg/mL and 2.64 µg/mL |
| OSM-GST mutant L14A (ligand, Alanine mutant of m4; also called (7)L14A; 7 L14A; not shown: Its linker is left out) AAIGSCSKEYRVLAGQLQKQTDLMQDTSRLLDPYIRIQGLDVPKLREHCRERPGAFPSEETLRGLGRRGFLQTLNATLGCVLHRLADLEQRLPKAQDLERSGLNIEDLEKLQMARPNILGLRNNIYCMAQLLDNSDTAEPTKAGRGASQPPTPTPASDAFQRKLEGCRFLHGYHRFMHSVGRVFSKWGESPNRSRR | 81 | 0.0194 | 77 | 0.0249 | 79 | 0.514 | 0.66 µg/mL and 0.47 µg/mL and 0.412 µg/mL |
| OSM-GST mutant L17A (ligand, Alanine mutant of m4; also called (10)L17A; 10 L17A; not shown: Its linker is left out) AAIGSCSKEYRVLLGQAQKQTDLMQDTSRLLDPYIRIQGLDVPKLREHCRERPGAFPSEETLRGLGRRGFLQTLNATLGCVLHRLADLEQRLPKAQDLERSGLNIEDLEKLQMARPNILGLRNNIYCMAQLLDNSDTAEPTKAGRGASQPPTPTPASDAFQRKLEGCRFLHGYHRFMHSVGRVFSKWGESPNRSRR | 301 | 0.0727 | 174 | 0.056 | 238 | 1.82 | 2.21 µg/mL and 1.9 µg/mL and 1.35 µg/mL |
| OSM-GST mutant L119A (ligand, not shown: a dimerising Fc or GST; large carriers; small tags and cut ends, Alanine mutant of m4; also called (19)L119A; 19 L119A) AAIGSCSKEYRVLLGQLQKQTDLMQDTSRLLDPYIRIQGLDVPKLREHCRERPGAFPSEETLRGLGRRGFLQTLNATLGCVLHRLADLEQRLPKAQDLERSGLNIEDLEKLQMARPNIAGLRNNIYCMAQLLDNSDTAEPTKAGRGASQPPTPTPASDAFQRKLEGCRFLHGYHRFMHSVGRVFSKWGESPNRSRR | 115 | 0.0278 | 72 | 0.023 | 93.5 | 0.255 | 0.272 µg/mL and 0.266 µg/mL and 0.227 µg/mL |
| OSM-GST mutant M113A (ligand, not shown: a dimerising Fc or GST; large carriers; small tags and cut ends, Alanine mutant of m4; also called (16)M113; 16 M113A) AAIGSCSKEYRVLLGQLQKQTDLMQDTSRLLDPYIRIQGLDVPKLREHCRERPGAFPSEETLRGLGRRGFLQTLNATLGCVLHRLADLEQRLPKAQDLERSGLNIEDLEKLQAARPNILGLRNNIYCMAQLLDNSDTAEPTKAGRGASQPPTPTPASDAFQRKLEGCRFLHGYHRFMHSVGRVFSKWGESPNRSRR | 106 | 0.0256 | 78 | 0.025 | 92 | 0.321 | 0.511 µg/mL and 0.199 µg/mL and 0.252 µg/mL |
| OSM-GST mutant N117A (ligand, not shown: a dimerising Fc or GST; large carriers; small tags and cut ends, Alanine mutant of m4; also called (18)N117A; 18 N117A) AAIGSCSKEYRVLLGQLQKQTDLMQDTSRLLDPYIRIQGLDVPKLREHCRERPGAFPSEETLRGLGRRGFLQTLNATLGCVLHRLADLEQRLPKAQDLERSGLNIEDLEKLQMARPAILGLRNNIYCMAQLLDNSDTAEPTKAGRGASQPPTPTPASDAFQRKLEGCRFLHGYHRFMHSVGRVFSKWGESPNRSRR | 241 | 0.058 | 132 | 0.0425 | 186 | 0.785 | 0.983 µg/mL and 0.756 µg/mL and 0.617 µg/mL |
| OSM-GST mutant N124A (ligand, not shown: a dimerising Fc or GST; large carriers; small tags and cut ends, Alanine mutant of m4; also called (23)N124A; 23 N124A) AAIGSCSKEYRVLLGQLQKQTDLMQDTSRLLDPYIRIQGLDVPKLREHCRERPGAFPSEETLRGLGRRGFLQTLNATLGCVLHRLADLEQRLPKAQDLERSGLNIEDLEKLQMARPNILGLRNAIYCMAQLLDNSDTAEPTKAGRGASQPPTPTPASDAFQRKLEGCRFLHGYHRFMHSVGRVFSKWGESPNRSRR | 125 | 0.0302 | 113 | 0.0362 | 119 | 1.99 | 1.63 µg/mL and 1.95 µg/mL and 2.38 µg/mL |
